B1: CYC1d EMSA probe (ssRNA)
RNA: AAGAACGUUAUUUAUAUUUCAAAUUUUUCUUUUUU
B2: A15 (ssRNA)
RNA: AAAAAAAAAAAAAAA
B3: U15 (ssRNA)
RNA: UUUUUUUUUUUUUUU
B4: C15 (ssRNA)
RNA: CCCCCCCCCCCCCCC
B5: G15 (ssRNA)
RNA: GGGGGGGGGGGGGGG

Legend:
[1] = target: Cft1;Pfs2;Yth1;Fip1;Pap1 (Saccharomyces cerevisiae;Saccharomyces …, UniProt Q06632;P42841;Q06102;P45976;P29468 1-1357;1-465;1-208;1-327;1-568, ||||); assay: EMSA; CPFpol; EMSA: 50 nM RNA, 0.25-4.0 uM protein, protein diluted in 10 mM HEPES pH 7.9, 150 mM NaCl, 0.5 mM Mg(OAc)2, plus 1x loading dye (orange G, glycerol, EDTA); 30 min on ice; native 6% acrylamide/TBE PAGE; settings: protein: recombinant;recombinant;recombinant;recombinant;recombinant; tags: ;3C-SII;3C-8H; untagged in CPFpol+Cft2;;SII (Pap1-SII) when alone; untagged in CPFpol and CPFcore; copies: 1;2;1;1;1; label: 5'-FAM
[2] = target: Cft1;Pfs2;Yth1;Fip1 (Saccharomyces cerevisiae;Saccharomyces …, UniProt Q06632;P42841;Q06102;P45976 1-1357;1-465;1-208;1-327, |||); assay: EMSA; CPFpol (no Pap1); EMSA: 50 nM RNA, 0.25-4.0 uM protein, protein diluted in 10 mM HEPES pH 7.9, 150 mM NaCl, 0.5 mM Mg(OAc)2, plus 1x loading dye (orange G, glycerol, EDTA); 30 min on ice; native 6% acrylamide/TBE PAGE; settings: protein: recombinant;recombinant;recombinant;recombinant; tags: ;3C-SII;3C-8H; untagged in CPFpol+Cft2;; copies: 1;2;1;1; label: 5'-FAM
Chain of Cft1;Pfs2;Yth1;Fip1 (Q06632 whole entry, chain 1 of 4): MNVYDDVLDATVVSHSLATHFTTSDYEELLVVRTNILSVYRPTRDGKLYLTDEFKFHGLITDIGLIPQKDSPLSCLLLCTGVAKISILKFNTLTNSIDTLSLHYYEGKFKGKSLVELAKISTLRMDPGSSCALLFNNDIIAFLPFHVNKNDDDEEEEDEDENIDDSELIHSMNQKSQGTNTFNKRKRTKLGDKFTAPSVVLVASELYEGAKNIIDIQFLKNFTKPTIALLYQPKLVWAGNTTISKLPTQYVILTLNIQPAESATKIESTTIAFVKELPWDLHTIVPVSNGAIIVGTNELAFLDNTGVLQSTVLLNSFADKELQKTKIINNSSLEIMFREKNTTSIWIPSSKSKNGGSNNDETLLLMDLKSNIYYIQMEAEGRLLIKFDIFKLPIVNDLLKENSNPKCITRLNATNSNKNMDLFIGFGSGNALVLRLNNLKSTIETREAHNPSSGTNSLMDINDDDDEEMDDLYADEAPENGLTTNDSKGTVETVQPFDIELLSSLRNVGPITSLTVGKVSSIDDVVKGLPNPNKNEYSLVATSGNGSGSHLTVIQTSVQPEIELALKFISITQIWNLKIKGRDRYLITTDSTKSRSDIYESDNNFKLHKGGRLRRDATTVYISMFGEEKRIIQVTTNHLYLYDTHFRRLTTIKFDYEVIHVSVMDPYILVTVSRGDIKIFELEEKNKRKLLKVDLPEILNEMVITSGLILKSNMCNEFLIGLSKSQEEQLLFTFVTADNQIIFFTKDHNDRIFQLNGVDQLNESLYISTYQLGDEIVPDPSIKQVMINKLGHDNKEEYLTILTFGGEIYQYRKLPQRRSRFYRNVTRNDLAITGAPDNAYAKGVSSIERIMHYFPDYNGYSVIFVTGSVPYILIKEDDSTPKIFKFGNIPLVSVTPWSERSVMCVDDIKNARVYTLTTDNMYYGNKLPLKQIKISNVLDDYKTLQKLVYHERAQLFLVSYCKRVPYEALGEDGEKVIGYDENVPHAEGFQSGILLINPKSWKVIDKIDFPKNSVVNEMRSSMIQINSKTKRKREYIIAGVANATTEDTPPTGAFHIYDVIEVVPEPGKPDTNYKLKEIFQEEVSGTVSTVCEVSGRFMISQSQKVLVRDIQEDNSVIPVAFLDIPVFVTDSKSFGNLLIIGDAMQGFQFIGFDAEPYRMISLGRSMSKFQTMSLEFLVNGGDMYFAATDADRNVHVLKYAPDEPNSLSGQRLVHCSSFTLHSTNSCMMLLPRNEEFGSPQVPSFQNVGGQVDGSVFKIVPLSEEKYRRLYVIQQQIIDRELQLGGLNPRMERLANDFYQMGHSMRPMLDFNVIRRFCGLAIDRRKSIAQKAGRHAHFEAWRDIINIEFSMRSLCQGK
Chain of Cft1;Pfs2;Yth1;Fip1 (P42841 whole entry, chain 2 of 4): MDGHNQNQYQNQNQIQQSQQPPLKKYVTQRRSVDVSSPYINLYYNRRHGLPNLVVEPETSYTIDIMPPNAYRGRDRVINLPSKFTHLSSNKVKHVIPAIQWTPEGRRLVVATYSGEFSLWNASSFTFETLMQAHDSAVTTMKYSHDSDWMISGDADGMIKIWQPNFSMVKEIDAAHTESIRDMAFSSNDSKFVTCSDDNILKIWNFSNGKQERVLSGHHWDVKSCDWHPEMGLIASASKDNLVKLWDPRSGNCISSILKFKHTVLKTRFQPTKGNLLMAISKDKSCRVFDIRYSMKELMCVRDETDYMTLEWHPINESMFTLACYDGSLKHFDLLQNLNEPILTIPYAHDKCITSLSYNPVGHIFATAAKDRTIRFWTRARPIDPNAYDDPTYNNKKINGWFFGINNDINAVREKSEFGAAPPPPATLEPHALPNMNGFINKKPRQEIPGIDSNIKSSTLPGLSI
Chain of Cft1;Pfs2;Yth1;Fip1 (Q06102 whole entry, chain 3 of 4): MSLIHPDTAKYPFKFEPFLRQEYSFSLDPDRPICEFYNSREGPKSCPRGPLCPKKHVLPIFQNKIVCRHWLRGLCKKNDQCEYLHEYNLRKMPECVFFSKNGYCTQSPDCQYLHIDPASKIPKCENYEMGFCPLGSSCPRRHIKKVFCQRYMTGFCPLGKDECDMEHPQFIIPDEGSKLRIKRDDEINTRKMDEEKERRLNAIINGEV
Chain of Cft1;Pfs2;Yth1;Fip1 (P45976 whole entry, chain 4 of 4): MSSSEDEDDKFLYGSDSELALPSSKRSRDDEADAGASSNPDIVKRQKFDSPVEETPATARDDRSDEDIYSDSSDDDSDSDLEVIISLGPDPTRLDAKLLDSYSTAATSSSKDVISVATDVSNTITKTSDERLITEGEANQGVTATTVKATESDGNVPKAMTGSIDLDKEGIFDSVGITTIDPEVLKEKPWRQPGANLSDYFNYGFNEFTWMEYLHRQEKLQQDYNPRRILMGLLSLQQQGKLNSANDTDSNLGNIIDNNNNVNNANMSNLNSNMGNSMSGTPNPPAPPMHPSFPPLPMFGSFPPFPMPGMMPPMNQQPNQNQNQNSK

Row | Binder | binding result [1] | binding result [2]
1 | B1 | binds | binds
2 | B2 | binds | binds
3 | B3 | no binding | no binding
4 | B4 | no binding | no binding
5 | B5 | binds | binds

From PMC6436931, “Activation of the Endonuclease that Defines mRNA 3′ Ends Requires Incorporation into an 8-Subunit Core Cleavage and Polyadenylation Factor Complex” (Molecular Cell, 2019)
